This note sets out measurements from patent publication US20240252592A1 (TIANJIN INSTITUTE OF PHARMACEUTICAL RESEARCH, published 2024).

The target of one test is human GLP-1 receptor (human, UniProt P43220 24-463). Briefly: cell-based or functional assay.
For the next test, the target named is GC receptor. Briefly: cell-based or functional assay.

Numbered stars: 1 amine (or outer) side, 2 acyl side, 3 side chain; on linkers, the order of the positions; unused ones are H or OH. Square brackets hold non-standard residues; d marks the D form. Side chains are listed from the residue outwards. Ends that are not written are not given here. * marks the point of attachment. OC17H32COOH = fatty diacid acyl group -OC17H32COOH on the linker; C20 diacid = O=C(O)CCCCCCCCCCCCCCCCCCC(=O)*; C18 diacid = O=C(O)CCCCCCCCCCCCCCCCC(=O)*; γGlu = O=C(O)[C@H](CCC(=O)[*:2])N[*:1]; Palmitoyl = CCCCCCCCCCCCCCCC(=O)*; AEEA = NCCOCCOCC(=O)O; Aib = CC(C)(N)C(=O)O

On to H[Aib]QGTFTSDYSKYLEERKAK([AEEA-AEEA-γGlu-C20 diacid])EFIAWLEGGPSSG-NH2 (not fully specified; printed as HAibQGTFTSDYSKYLEERKAK***EFIAWLEGGPSSG-Amid) [Compound 68], for which the “EC50 of GLP-1 receptor mediated cAMP production” value in the test with human GLP-1 receptor was 0.13 nM. Besides, the “EC50 of GC receptor mediated cAMP production” value with GC receptor turned out to be 0.314 nM.

For the molecule H[Aib]QGTFTSDYSKYLEEKRAK([AEEA-AEEA-γGlu-C18 diacid])EFVAWLEGGPSSG-NH2 (not fully specified; printed as HAibQGTFTSDYSKYLEEKRAK**EFVAWLEGGPSSG-Amid) [Compound 74], the “EC50 of GLP-1 receptor mediated cAMP production” value with human GLP-1 receptor worked out at 0.842 nM. The “EC50 of GC receptor mediated cAMP production” value in the test with GC receptor came out at 0.725 nM.

Turning to H[Aib]QGTFTSDYSKYLDEKRAK([AEEA-AEEA-γGlu-C18 diacid])EFIAWLEAGGPSSG-NH2 (not fully specified; printed as HAibQGTFTSDYSKYLDEKRAK**EFIAWLEAGGPSSG-Amid) [Compound 50], in the test with human GLP-1 receptor, the “EC50 of GLP-1 receptor mediated cAMP production” value came out at 0.119 nM. Also, the “EC50 of GC receptor mediated cAMP production” value with GC receptor came out at 0.048 nM.

B1: Compound 1 (peptide)
peptide: HXQGTFTSDKSKYLXERAAKEFIXWLEAGGPSSG
HELM: PEPTIDE1{H.[Aib].Q.G.T.F.T.S.D.K.S.K.Y.L.E.E.R.A.A.K.E.F.I.A.W.L.E.A.G.G.P.S.S.G.[am]}|PEPTIDE2{[CCCCCCCCCCCCCCCC(=O)[*:2]].[gGlu].[gGlu]}$PEPTIDE1,PEPTIDE2,10:R3-3:R2$$$V2.0; N-terminus assumed
SMILES: CCCCCCCCCCCCCCCC(=O)N[C@@H](CCC(=O)N[C@@H](CCC(=O)NCCCC[C@H](NC(=O)[C@H](CC(=O)O)NC(=O)[C@H](CO)NC(=O)[C@@H](NC(=O)[C@H](Cc1ccccc1)NC(=O)[C@@H](NC(=O)CNC(=O)[C@H](CCC(N)=O)NC(=O)C(C)(C)NC(=O)[C@@H](N)Cc1c[nH]cn1)[C@@H](C)O)[C@@H](C)O)C(=O)N[C@@H](CO)C(=O)N[C@@H](CCCCN)C(=O)N[C@@H](Cc1ccc(O)cc1)C(=O)N[C@@H](CC(C)C)C(=O)N[C@@H](CCC(=O)O)C(=O)N[C@@H](CCC(=O)O)C(=O)N[C@@H](CCCNC(=N)N)C(=O)N[C@@H](C)C(=O)N[C@@H](C)C(=O)N[C@@H](CCCCN)C(=O)N[C@@H](CCC(=O)O)C(=O)N[C@@H](Cc1ccccc1)C(=O)N[C@H](C(=O)N[C@@H](C)C(=O)N[C@@H](Cc1c[nH]c2ccccc12)C(=O)N[C@@H](CC(C)C)C(=O)N[C@@H](CCC(=O)O)C(=O)N[C@@H](C)C(=O)NCC(=O)NCC(=O)N1CCC[C@H]1C(=O)N[C@@H](CO)C(=O)N[C@@H](CO)C(=O)NCC(N)=O)[C@@H](C)CC)C(=O)O)C(=O)O
For the molecule B1, the “EC50 of GLP-1 receptor mediated cAMP production” value with human GLP-1 receptor came out at 0.0654 nM. The “EC50 of GC receptor mediated cAMP production” value with GC receptor was 0.0574 nM.

B2: Compound 79 (peptide)
peptide: HXQGTFTSDKSKYLXERAAKEFIXWLEAGGPSSG
modifications: not fully specified; Lys 10 side chain -Ado-Ado-γE-OC17H32COOH; C-terminal amide
On to B2, for which the “EC50 of GLP-1 receptor mediated cAMP production” value in the test with human GLP-1 receptor was found to be 0.033 nM. The “EC50 of GC receptor mediated cAMP production” value in the test with GC receptor was found to be 0.025 nM.

As to H[Aib]QGTFTSDYSKYLDEKRAK([γGlu-γGlu-Palmitoyl])EFIAWLEAGGPSSG-NH2 (not fully specified; printed as HAibQGTFTSDYSKYLDEKRAK*EFIAWLEAGGPSSG-Amid) [Compound 57], in the test with human GLP-1 receptor, the “EC50 of GLP-1 receptor mediated cAMP production” value was found to be 0.094 nM. In the test with GC receptor, the “EC50 of GC receptor mediated cAMP production” value was found to be 0.081 nM.

H[Aib]QGTFTSDYSKYLEERKAK([γGlu-γGlu-Palmitoyl])EFVEWLEGGPSSG-NH2 (not fully specified; printed as HAibQGTFTSDYSKYLEERKAK*EFVEWLEGGPSSG-Amid) [Compound 62]: the “EC50 of GLP-1 receptor mediated cAMP production” value in the test with human GLP-1 receptor worked out at 0.313 nM. For the same molecule, the “EC50 of GC receptor mediated cAMP production” value with GC receptor was found to be 0.156 nM.

Regarding H[Aib]QGTFTSDYSKYLEERKAK([AEEA-AEEA-γGlu-C18 diacid])EFIAWLEAGGPSSG-NH2 (not fully specified; printed as HAibQGTFTSDYSKYLEERKAK**EFIAWLEAGGPSSG-Amid) [Compound 44], the “EC50 of GLP-1 receptor mediated cAMP production” value in the test with human GLP-1 receptor was found to be 0.371 nM. Further, the “EC50 of GC receptor mediated cAMP production” value in the test with GC receptor came out at 0.219 nM.

Consider H[Aib]QGTFTSDYSKYLEEKRAK([AEEA-AEEA-γGlu-C18 diacid])EFVAWLEAGGPSSG-NH2 (not fully specified; printed as HAibQGTFTSDYSKYLEEKRAK**EFVAWLEAGGPSSG-Amid) [Compound 53], for which the “EC50 of GLP-1 receptor mediated cAMP production” value in the test with human GLP-1 receptor was found to be 0.532 nM. In addition, the “EC50 of GC receptor mediated cAMP production” value in the test with GC receptor was found to be 0.316 nM.

For the molecule H[Aib]QGTFTSDYSKYLEEKRAK([γGlu-γGlu-Palmitoyl])EFVEWLEGGPSSG-NH2 (not fully specified; printed as HAibQGTFTSDYSKYLEEKRAK*EFVEWLEGGPSSG-Amid) [Compound 76], the “EC50 of GLP-1 receptor mediated cAMP production” value with human GLP-1 receptor worked out at 0.22 nM. Besides, in the test with GC receptor, the “EC50 of GC receptor mediated cAMP production” value was 0.191 nM.

In the case of H[Aib]QGTFTSDYSKYLDERKAK([γGlu-γGlu-Palmitoyl])EFVEWLEGGPSSG-NH2 (not fully specified; printed as HAibQGTFTSDYSKYLDERKAK*EFVEWLEGGPSSG-Amid) [Compound 69], the “EC50 of GLP-1 receptor mediated cAMP production” value with human GLP-1 receptor was 0.778 nM. Further, the “EC50 of GC receptor mediated cAMP production” value with GC receptor was 0.261 nM.

As to H[Aib]QGTFTSDYSKYLDERKAK([AEEA-AEEA-γGlu-OC17H32COOH])EFIEWLEGGPSSG-NH2 (not fully specified; printed as HAibQGTFTSDYSKYLDERKAK**EFIEWLEGGPSSG-Amid) [Compound 66], the “EC50 of GLP-1 receptor mediated cAMP production” value with human GLP-1 receptor amounted to 0.051 nM. Besides, in the test with GC receptor, the “EC50 of GC receptor mediated cAMP production” value stood at 0.058 nM.

With H[Aib]QGTFTSDYSKYLEEKRAK([AEEA-AEEA-γGlu-C18 diacid])EFVEWLEAGGPSSG-NH2 (not fully specified; printed as HAibQGTFTSDYSKYLEEKRAK**EFVEWLEAGGPSSG-Amid) [Compound 54], in the test with human GLP-1 receptor, the “EC50 of GLP-1 receptor mediated cAMP production” value was found to be 0.219 nM. For the same molecule, the “EC50 of GC receptor mediated cAMP production” value with GC receptor was found to be 0.274 nM.

H[Aib]QGTFTSDYSKYLDERKAK([AEEA-AEEA-γGlu-C18 diacid])EFVEWLEAGGPSSG-NH2 (not fully specified; printed as HAibQGTFTSDYSKYLDERKAK**EFVEWLEAGGPSSG-Amid) [Compound 42]: in the test with human GLP-1 receptor, the “EC50 of GLP-1 receptor mediated cAMP production” value stood at 0.52 nM. For the same molecule, the “EC50 of GC receptor mediated cAMP production” value with GC receptor came out at 0.024 nM.

On to HSQGTFTSDYSKYLDERAAK([AEEA-AEEA-γGlu-C18 diacid])EFIAWLEGGPSSG-NH2 (not fully specified; printed as HSQGTFTSDYSKYLDERAAK**EFIAWLEGGPSSG-Amid) [Compound 38], for which the “EC50 of GLP-1 receptor mediated cAMP production” value with human GLP-1 receptor was 0.716 nM. Also, the “EC50 of GC receptor mediated cAMP production” value with GC receptor worked out at 0.102 nM.
